The target in the test is recombinant human mitochondrial Hsp60 (human), P10809. Put plainly: native gel or EMSA + SEC. As to conditions: remark: other sources report otherwise.

B1: recombinant human mitochondrial Hsp60, P10809 27-573 (natural protein)
chain: AKDVKFGADARALMLQGVDLLADAVAVTMGPKGRTVIIEQSWGSPKVTKDGVTVAKSIDLKDKYKNIGAKLVQDVANNTNEEAGDGTTTATVLARSIAKEGFEKISKGANPVEIRRGVMLAVDAVIAELKKQSKPVTTPEEIAQVATISANGDKEIGNIISDAMKKVGRKGVITVKDGKTLNDELEIIEGMKFDRGYISPYFINTSKGQKCEFQDAYVLLSEKKISSIQSIVPALEIANAHRKPLVIIAEDVDGEALSTLVLNRLKVGLQVVAVKAPGFGDNRKNQLKDMAIATGGAVFGEEGLTLNLEDVQPHDLGKVGEVIVTKDDAMLLKGKGDKAQIEKRIQEIIEQLDVTTSEYEKEKLNERLAKLSDGVAVLKVGGTSDVEVNEKKDRVTDALNATRAAVEEGIVLGGGCALLRCIPALDSLTPANEDQKIGIEIIKRTLKIPAMTIAKNAGVEGSLIVEKIMQSSSEVGYDAMAGDFVNMVEKGIIDPTKVVRTALLDAAGVASLLTTAEVVVTEIPKEEKDPGMGAMGGMGGGMGGGMF
Regarding B1, the stoichiometry N came to 7.

The record behind these values is doi:10.1101/2025.07.07.663466.
